Test results: patent US11440969B2, “Use of human epididymis protein 4 (HE4) for assessing responsiveness of MUC 16-positive cancer treatment” (Genentech, Inc., priority 2016, dated 2022)
“Also recorded” adds a separate entry of the source.

Experiments:
[1] = system: recombinant human MUC16 extracellular domain; experiment: Binding to recombinant human MUC16 extracellular domain
[2] = system: unresectable pancreatic cancer; experiment: Clinical activity of DMUC5754A (RECIST) in pancreatic cancer patients; format: in vivo, human; settings: PC patients, 2.4 mg/kg q3w, 10 patients treated
Protocol: This multicenter, open-label, dose-escalation study was designed to identify the recommended Phase II dose (RP2D) of DMUC5754A in patients with platinum-resistant OC or unresectable pancreatic cancer. In the single-agent dose escalation stage utilizing a 3+3 enrollment scheme, patients were given intravenous DMUC5754A (Genentech Inc.) 0.3-3.2 mg/kg every 3 weeks (q3w) to evaluate the safety, tolerability, and pharmacokinetics of DMUC5754A. Following determination of the maximum tolerated dose (MTD), dose-expansion cohorts were enrolled at the RP2D of 2.4 mg/kg to further characterize the safety and preliminary clinical efficacy of DMUC5754A.
PC patients had histologic documentation of incurable, locally advanced, or metastatic disease for which no standard therapy exists, consisting of unresectable pancreatic ductal adenocarcinoma (i.e., patients with locally advanced or metastatic disease who are not considered eligible for surgical resection with curative intent), including recurrence of previously-resected disease considered unresectable with curative intent. […]
Objective response rate was estimated only for patients with disease that was measurable by RECIST guidelines. Objective response is defined as a complete or partial response, as determined by investigator assessment and confirmed by repeat assessments ≥4 weeks after initial documentation. […]

B1: DMUC5754A: antibody-drug conjugate: humanized IgG1 anti-MUC16 monoclonal antibody and MMAE, linked through protease labile linker maleimidocaproyl-valine-citrulline-p-aminobenzyloxycarbonyl (conjugate, chains of the INN, looked up)
VH: EVQLVESGGGLVQPGGSLRLSCAASGYSITNDYAWNWVRQAPGKGLEWVGYISYSGYTTYNPSLKSRFTISRDTSKNTLYLQMNSLRAEDTAVYYCARWTSGLDYWGQGTLVTVSS
VL: DIQMTQSPSSLSASVGDRVTITCKASDLIHNWLAWYQQKPGKAPKLLIYGATSLETGVPSRFSGSGSGTDFTLTISSLQPEDFATYYCQQYWTTPFTFGQGTKVEIK
modifications: MMAE via mc-vc-PABC linker
In the case of B1, the binding affinity [1] is reported as “high affinity” and the radiographic responses [2] is reported as “No patients; also recorded: no radiologic responses”.
